Experimental findings from US20090280480A1 are described below.

Assay [1] addresses NM fibers (amyloid fibers assembled from Sup35 NM; also used sonicated as seed) (Saccharomyces cerevisiae) (UniProt P05453). The experiment in a line: seeded fibre elongation; sedimentation of soluble NM plus acrylodan wavelength-shift assay, Lineweaver-Burk plot.
Assay [2] shares this target. The experiment in a line: seeded fibre elongation; sedimentation of soluble NM plus acrylodan wavelength-shift assay, Lineweaver-Burk plot (Michaelis-Menten model of soluble NM binding to seed and converting).

NM fibers (amyloid fibers assembled from Sup35 NM; also used sonicated as seed) (Saccharomyces cerevisiae), sequence (P05453 1-253): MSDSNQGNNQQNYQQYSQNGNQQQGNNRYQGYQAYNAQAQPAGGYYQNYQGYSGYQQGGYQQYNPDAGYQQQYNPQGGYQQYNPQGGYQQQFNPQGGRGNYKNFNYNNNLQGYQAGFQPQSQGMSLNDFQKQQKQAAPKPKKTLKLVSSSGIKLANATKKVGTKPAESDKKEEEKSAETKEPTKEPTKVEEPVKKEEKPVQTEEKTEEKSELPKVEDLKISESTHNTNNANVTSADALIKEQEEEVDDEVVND

Turning to “NM^T158C-acrylodan (soluble) (from UniProt P05453 1-253) (other; other documents disagree on this pair)”, the kconf/Km (conformational conversion efficiency) in assay [1] was found to be 42000 M⁻¹ s⁻¹. Besides, the Michaelis constant (Km) – broadly, the substrate concentration at which the rate is half of its maximum – in assay [2] is 0.12 µM.
